From paper PMC9463131, “SLITRK1-mediated noradrenergic projection suppression in the neonatal prefrontal cortex” (Communications Biology, 2022)
Where “and” joins values, the source holds several entries; their conditions need not be identical. Equal values may be shown once.

B1: SLITRK1 ECD-immunoglobulin Fc domain-fusion protein (SLITRK1-WT-Fc) (Fc fusion, human, UniProt Q96PX8 18-616, looked up)
chain: NVTGDVCKEKICSCNEIEGDLHVDCEKKGFTSLQRFTAPTSQFYHLFLHGNSLTRLFPNEFANFYNAVSLHMENNGLHEIVPGAFLGLQLVKRLHINNNKIKSFRKQTFLGLDDLEYLQADFNLLRDIDPGAFQDLNKLEVLILNDNLISTLPANVFQYVPITHLDLRGNRLKTLPYEEVLEQIPGIAEILLEDNPWDCTCDLLSLKEWLENIPKNALIGRVVCEAPTRLQGKDLNETTEQDLCPLKNRVDSSLPAPPAQEETFAPGPLPTPFKTNGQEDHATPGSAPNGGTKIPGNWQIKIRPTAAIATGSSRNKPLANSLPCPGGCSCDHIPGSGLKMNCNNRNVSSLADLKPKLSNVQELFLRDNKIHSIRKSHFVDYKNLILLDLGNNNIATVENNTFKNLLDLRWLYMDSNYLDTLSREKFAGLQNLEYLNVEYNAIQLILPGTFNAMPKLRILILNNNLLRSLPVDVFAGVSLSKLSLHNNYFMYLPVAGVLDQLTSIIQIDLHGNPWECSCTIVPFKQWAERLGSEVLMSDLKCETPVNFFRKDFMLLSNDEICPQLYARISPTLTSHSKNSTGLAETGTHSNSYLDTSRVS
notes: signal peptide in the construct; human SLITRK1 extracellular domain, amino acid number 1-616 in NP_443142; Held on the resonator through anti-human IgG Fc; also called SLITRK1 ECD-Fc
B2: SLITRK1-S330A-Fc (Fc fusion, human, UniProt Q96PX8 18-616, looked up)
chain: NVTGDVCKEKICSCNEIEGDLHVDCEKKGFTSLQRFTAPTSQFYHLFLHGNSLTRLFPNEFANFYNAVSLHMENNGLHEIVPGAFLGLQLVKRLHINNNKIKSFRKQTFLGLDDLEYLQADFNLLRDIDPGAFQDLNKLEVLILNDNLISTLPANVFQYVPITHLDLRGNRLKTLPYEEVLEQIPGIAEILLEDNPWDCTCDLLSLKEWLENIPKNALIGRVVCEAPTRLQGKDLNETTEQDLCPLKNRVDSSLPAPPAQEETFAPGPLPTPFKTNGQEDHATPGSAPNGGTKIPGNWQIKIRPTAAIATGSARNKPLANSLPCPGGCSCDHIPGSGLKMNCNNRNVSSLADLKPKLSNVQELFLRDNKIHSIRKSHFVDYKNLILLDLGNNNIATVENNTFKNLLDLRWLYMDSNYLDTLSREKFAGLQNLEYLNVEYNAIQLILPGTFNAMPKLRILILNNNLLRSLPVDVFAGVSLSKLSLHNNYFMYLPVAGVLDQLTSIIQIDLHGNPWECSCTIVPFKQWAERLGSEVLMSDLKCETPVNFFRKDFMLLSNDEICPQLYARISPTLTSHSKNSTGLAETGTHSNSYLDTSRVS
notes: signal peptide in the construct; human SLITRK1 extracellular domain, amino acid number 1-616 in NP_443142, with the patient-derived mutation S330A; S330A was found in patients (SCZ/BPD) and controls, so it occurs in nature; also called SLITRK1 ECD-Fc S330A
B3: SLITRK1-A444S-Fc (Fc fusion, human, UniProt Q96PX8 18-616, looked up)
chain: NVTGDVCKEKICSCNEIEGDLHVDCEKKGFTSLQRFTAPTSQFYHLFLHGNSLTRLFPNEFANFYNAVSLHMENNGLHEIVPGAFLGLQLVKRLHINNNKIKSFRKQTFLGLDDLEYLQADFNLLRDIDPGAFQDLNKLEVLILNDNLISTLPANVFQYVPITHLDLRGNRLKTLPYEEVLEQIPGIAEILLEDNPWDCTCDLLSLKEWLENIPKNALIGRVVCEAPTRLQGKDLNETTEQDLCPLKNRVDSSLPAPPAQEETFAPGPLPTPFKTNGQEDHATPGSAPNGGTKIPGNWQIKIRPTAAIATGSSRNKPLANSLPCPGGCSCDHIPGSGLKMNCNNRNVSSLADLKPKLSNVQELFLRDNKIHSIRKSHFVDYKNLILLDLGNNNIATVENNTFKNLLDLRWLYMDSNYLDTLSREKFSGLQNLEYLNVEYNAIQLILPGTFNAMPKLRILILNNNLLRSLPVDVFAGVSLSKLSLHNNYFMYLPVAGVLDQLTSIIQIDLHGNPWECSCTIVPFKQWAERLGSEVLMSDLKCETPVNFFRKDFMLLSNDEICPQLYARISPTLTSHSKNSTGLAETGTHSNSYLDTSRVS
notes: signal peptide in the construct; human SLITRK1 extracellular domain, amino acid number 1-616 in NP_443142, with the patient-derived mutation A444S; A444S was found in patients with BPD, so it occurs in nature; also called SLITRK1 ECD-Fc A444S

Key:
human PTPRD ECD-His6 = biological target: T1, human PTPRD ECD-His6 (human, UniProt P23468 21-1265); test: quartz crystal microbalance; SLITRK1 ECD-Fc (about 200 fmol) immobilised on the 27 MHz gold resonator through anti-human IgG Fc-HRP; ECD-His6 proteins added in solution; 50 mM Tris-HCl pH 7.6, 15 mM NaCl, 140 mM KCl, 0.5 mM MgCl2, 2 mM CaCl2; 25 ± 1 °C; kon and koff from 1/τ against concentration, KD = koff/kon; each sheet row is one experiment; conditions: both partners purified
T1 construct: human PTPRD (receptor-type protein tyrosine phosphatase delta) extracellular domain; No catalogue number printed; also called PTPRδ; source: bought: ACROBiosystems
T1 sequence (looked up): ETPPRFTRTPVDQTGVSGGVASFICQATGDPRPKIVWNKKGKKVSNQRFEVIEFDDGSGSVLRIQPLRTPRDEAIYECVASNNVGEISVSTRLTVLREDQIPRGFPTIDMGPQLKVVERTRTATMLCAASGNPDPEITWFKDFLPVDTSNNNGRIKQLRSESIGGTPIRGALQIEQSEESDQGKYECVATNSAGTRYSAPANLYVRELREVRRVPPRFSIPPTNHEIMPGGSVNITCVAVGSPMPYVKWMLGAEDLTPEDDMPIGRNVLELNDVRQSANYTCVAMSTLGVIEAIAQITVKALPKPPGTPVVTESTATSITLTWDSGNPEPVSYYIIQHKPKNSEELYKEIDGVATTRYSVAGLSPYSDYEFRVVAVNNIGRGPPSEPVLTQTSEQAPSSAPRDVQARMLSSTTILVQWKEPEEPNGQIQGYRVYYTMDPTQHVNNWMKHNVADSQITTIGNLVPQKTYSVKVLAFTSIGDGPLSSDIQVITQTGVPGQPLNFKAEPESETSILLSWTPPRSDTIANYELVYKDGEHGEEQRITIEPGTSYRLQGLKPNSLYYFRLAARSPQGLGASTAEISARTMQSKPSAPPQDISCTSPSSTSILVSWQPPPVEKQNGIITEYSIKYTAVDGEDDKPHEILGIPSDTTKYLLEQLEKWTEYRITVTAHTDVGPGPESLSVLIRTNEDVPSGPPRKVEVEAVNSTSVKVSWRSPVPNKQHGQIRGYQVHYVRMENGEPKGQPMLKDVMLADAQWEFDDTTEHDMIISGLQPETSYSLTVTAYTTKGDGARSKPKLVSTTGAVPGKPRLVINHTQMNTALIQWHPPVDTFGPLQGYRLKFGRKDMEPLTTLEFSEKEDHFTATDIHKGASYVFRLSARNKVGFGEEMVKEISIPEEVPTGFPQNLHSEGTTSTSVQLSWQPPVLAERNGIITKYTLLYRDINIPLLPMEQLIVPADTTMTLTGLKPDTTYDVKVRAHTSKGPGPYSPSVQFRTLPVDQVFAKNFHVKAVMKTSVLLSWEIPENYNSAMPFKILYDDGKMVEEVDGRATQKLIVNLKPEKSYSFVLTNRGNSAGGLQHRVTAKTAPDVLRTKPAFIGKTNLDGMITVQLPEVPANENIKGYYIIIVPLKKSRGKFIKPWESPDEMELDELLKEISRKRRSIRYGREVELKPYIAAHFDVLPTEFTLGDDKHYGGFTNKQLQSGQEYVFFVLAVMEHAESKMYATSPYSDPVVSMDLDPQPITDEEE

[1] = biological target: human Neurofascin ECD-His6 (human, UniProt O94856 25-1217, Mammalian-expressed glycoprotein is likely. C-terminal His6 tag omitted. The limits are not printed. The paper names catalogue 8208-NF-050 as Neurofascin 155, so the chain runs from after the signal p); test: as above; conditions: both partners purified

| Binder | Kd (human PTPRD ECD-His6) | koff (human PTPRD ECD-His6) | kon (human PTPRD ECD-His6) | Kd [1] | koff [1] | kon [1] |
| --- | --- | --- | --- | --- | --- | --- |
| B1 | 110 nM and 202 nM and 144 nM | 0.00348 s⁻¹ and 0.00358 s⁻¹ and 0.00347 s⁻¹ | 31600 M⁻¹ s⁻¹ and 17700 M⁻¹ s⁻¹ and 24100 M⁻¹ s⁻¹ | 18.7 nM and 15.5 nM and 15.7 nM | 0.00278 s⁻¹ and 0.00247 s⁻¹ and 0.00243 s⁻¹ | 154000 M⁻¹ s⁻¹ and 149000 M⁻¹ s⁻¹ and 159000 M⁻¹ s⁻¹ |
| B2 |  |  |  | 44.8 nM and 64.2 nM and 68.8 nM | 0.00635 s⁻¹ and 0.00732 s⁻¹ and 0.00627 s⁻¹ | 142000 M⁻¹ s⁻¹ and 91200 M⁻¹ s⁻¹ and 114000 M⁻¹ s⁻¹ |
| B3 |  |  |  | 13.3 nM and 16.3 nM and 13.1 nM | 0.00529 s⁻¹ and 0.00613 s⁻¹ and 0.00588 s⁻¹ | 398000 M⁻¹ s⁻¹ and 376000 M⁻¹ s⁻¹ and 451000 M⁻¹ s⁻¹ |
